This assay addresses T1, IGFBP-5 (Homo sapiens, UniProt P24593).
T1 construct: purchased GroPep
Nature of the assay: VN-peptide array: binding of IGFBP-5 to immobilized overlapping 16-mer VN peptides. The settings on record: spot stronger than negative controls = positive hit. The text has this:
The inventors designed small-molecule VN-peptides that could potentially disrupt the formation of the IGF-I:IGFBP:VN trimeric or the IGF-II:VN dimeric complexes by binding to the IGFBPs and/or IGF-II and preventing their association with VN within the complex. To design peptides, the binding sites of IGFBP-3/-5 and IGF-II on VN were first determined using VN-peptide arrays. The entire VN protein sequence, excluding the signal peptide (residues 1-19), was divided into overlapping 16-mer peptides with 3AA frameshift/offset (for peptide sequences refer to Table 6) and immobilized onto cellulose membranes (peptide spotting was outsourced to PepMetric Technologies Inc). For a schematic of the arrangement of VN peptides and controls refer to FIG. 2. The resultant peptide arrays were incubated either with IGFBP-3, IGFBP-5 or IGF-II ligands, probed with the respective antibodies, the membranes developed using ECL, and imaged using the ChemiDoc™ XRS system (BioRad). The spots on the membrane were analysed using TotalLab array quantification software (TotalLab Ltd, Newcastle, England) identifying positive peptide spots by comparing each spot to the combined intensities of the negative controls.
The entire VN protein sequence, excluding the signal peptide (residues 1-19), was divided into overlapping 16-mer peptides with 3 amino acid (AA) frameshift/offset. […]

T1 sequence (P24593 21-272): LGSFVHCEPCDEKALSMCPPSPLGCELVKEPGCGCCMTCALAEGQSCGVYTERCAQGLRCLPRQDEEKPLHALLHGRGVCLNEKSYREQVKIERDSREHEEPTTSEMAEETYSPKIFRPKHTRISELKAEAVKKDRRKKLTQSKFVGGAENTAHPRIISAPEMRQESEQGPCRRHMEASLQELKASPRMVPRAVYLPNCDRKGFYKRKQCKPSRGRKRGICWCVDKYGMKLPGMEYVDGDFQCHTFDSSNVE

Consider “KTYLFKGSQYWRFEDG [Neg, reference compound]”, for which the “Binding of IGFBP-5 on VN-peptide array (positive spot or not)” value is listed as “did not show any binding”.
With “LFSSEESNLGANNYDDYRMDWL (listed as Homo sapiens) [Peptide P7, human VN motif 7 mimic]” the entry was “does not bind”.

The record behind these values is patent US10106582B2, “Complex-formation-modulating agents and uses therefor” (Factor Therapeutics Limited, priority 2012, dated 2018).
